Results taken from article PMC8615271.

Molecular target: PDI and ERp72 (human)
Assay: ITC; 280 µM P5 Cys55/58/190/193Ala mutant in the syringe (50 mM HEPES pH 7.2, 150 mM NaCl) titrated into 40 µM PDI or ERp72 in the cell (50 mM HEPES pH 7.2); 30 °C; one set of sites model

Kd: 2.4 to 4.1 µM
B1: Catalytically-inactive P5 (Cys55/58/190/193Ala) mutant (enzyme)
chain: LYSSSDDVIELTPSNFNREVIQSDSLWLVEFYAPWAGHAQRLTPEWKKAATALKDVVKVGAVDADKHHSLGGQYGVQGFPTIKIFGSNKNRPEDYQGGRTGEAIVDAALSALRQLVKDRLGGRSGGYSSGKQGRSDSSSKKDVIELTDDSFDKNVLDSEDVWMVEFYAPWAGHAKNLEPEWAAAASEVKEQTKGKVKLAAVDATVNQVLASRYGIRGFPTIKIFQKGESPVDYDGGRTRSDIVSRALDLFSDNAPPPELLEIINEDIAKRTCEEHQLCVVAVLPHILDTGAAGRNSYLEVLLKLADKYKKKMWGWLWTEAGAQSELETALGIGGFGYPAMAAINARKMKFALLKGSFSEQGINEFLRELSFGRGSTAPVGGGAFPTIVEREPWDGRDGELPVEDDIDLSDVELDDLGKDEL
